In patent US20250027090, “MIRROR-IMAGE SELECTION OF L-NUCLEIC ACID APTAMERS” (Tsinghua University, published 2025):

Molecular target: thrombin (native human beta-thrombin) (Homo sapiens, UniProt P00734;P00734 P00734:328-363,P00734:364-622)
Assay: ITC; physiological buffer pH 7.4, 25 C

B1: D-6 aptamer (ssDNA)
DNA: CGGATCCAGTTACGGACTGAACAGAAGGGTGGTGTGGTTGGACTGTTCATTCAGTAAGCTTCGG
Kd: 27 nM
